Measurements as given in the RNAGym collection of RNA variant scans (doi:10.7554/elife.90254).

B1: LINE1-mini (parent)
chain: GGCAGAGCUCAACACAGCGUGGCAAAGUGGCUGUGGCUAGACUGCC

Variants of: B1
Experiment: self-cleavage, relative activity (ratio to wild type); higher = more cleavage; in vitro, sequencing; the parent is a self-cleaving ribozyme

In order of rising self-cleavage:
1. C8U C10G  0.02
2. A11U C15G  0.02
3. U9C C23A  0.02
4. G1C A12C  0.02
5. G27C C37G  0.02
6. A12C U34A  0.02
7. U38G A41C  0.02
8. C10G C31G  0.02
9. U38G A39G  0.02
10. A11G G22C  0.02
11. A11G C46U  0.02
12. A11G U20C  0.03
13. U9C C18G  0.03
14. U38G G40C  0.03
15. C23G G33C  0.03
16. A11C U28C  0.03
17. A11G G33C  0.03
18. U32A U34G  0.03
19. C31A U38G  0.03
20. C31G U34A  0.03
21. G19C C37U  0.03
22. C10A G22C  0.03
23. U9C G33U  0.03
24. C10A C31A  0.03
25. U9C C46U  0.03
26. A12G G27A  0.03
27. U38G C46U  0.04
28. C31U G40U  0.04
29. C15G A26C  0.04
30. C23U C37U  0.04
31. G17U U38C  0.04
32. A11G A26G  0.04
33. A12C G35A  0.04
34. C37G C46U  0.04
35. G36C C42A  0.05
36. A24C U32C  0.05
37. C10A G19C  0.05
38. U34A C42U  0.05
39. G17U G33U  0.05
40. A16U U20A  0.06
41. G21U A41C  0.06
42. G7U U20A  0.06
43. G44C C45U  0.06
44. G5C A26C  0.06
45. A26G C31G  0.06
46. A16U A26G  0.06
47. G5A G44U  0.07
48. C42A C46G  0.07
49. A4U G40C  0.07
50. C18A C37U  0.07
51. G2C A12G  0.07
52. G5A C42G  0.07
53. G7U G21C  0.08
54. G1C A26C  0.08
55. C15G G40A  0.08
56. G2C A4U  0.08
57. C10U A12U  0.08
58. A14G C15A  0.08
59. G5U C45A  0.08
60. G7C C46U  0.08
61. A4U U34C  0.08
62. G7U C18A  0.08
63. A25C A39C  0.08
64. G2C C31U  0.08
65. C13G G40U  0.08
66. G5U C45G  0.08
67. C3G A41G  0.09
68. C13A A16U  0.09
69. C31G C42U  0.09
70. U32G G36A  0.09
71. C13A U32C  0.09
72. A41U C42A  0.09
73. U34A G40A  0.09
74. C31U G33A  0.09
75. C10G C18U  0.09
76. C8U A14U  0.09
77. C8G U20G  0.09
78. U28C G40A  0.09
79. G29C G33C  0.1
80. C13U G22C  0.1
81. C8G G27C  0.1
82. A4C U32G  0.1
83. C8G C18U  0.1
84. C8U G29C  0.1
85. G35U G36U  0.1
86. A6G C18G  0.11
87. G17C A39C  0.11
88. G35U A39C  0.11
89. C8G C15A  0.11
90. G5U G27U  0.11
91. C23U G40U  0.11
92. G1A A16C  0.11
93. G2C G21U  0.12
94. G30C A39G  0.12
95. U9G G17A  0.12
96. A6U G35A  0.12
97. A4C C15U  0.13
98. G5A A14G  0.13
99. G33U C42A  0.13
100. A4U U20C  0.13
101. C8G  0.13
102. G2C G7C  0.14
103. C13A C45U  0.15
104. C10G A24U  0.15
105. G19A G33U  0.15
106. G7A A12U  0.15
107. A6G A39C  0.15
108. G29A U43A  0.16
109. A11U A26C  0.16
110. A16C U28A  0.18
111. C8U C18A  0.18
112. A26G U32C  0.18
113. A4C U9A  0.18
114. G21C C31A  0.19
115. G2C G29U  0.19
116. C42A C46A  0.2
117. U9G G22A  0.21
118. C8U G29A  0.21
119. G27A U32G  0.21
120. G21C U38A  0.21
121. U20C U34G  0.22
122. U32C C42U  0.22
123. A24U A39C  0.23
124. G2A U32C  0.24
125. A26C U32C  0.24
126. G1U G27U  0.25
127. G2A A16G  0.26
128. A12U C45U  0.27
129. G19C U34A  0.28
130. G17A C23A  0.29
131. G7U C8A  0.3
132. A11U G21A  0.33
133. G19A C42A  0.34
134. A11U G22A  0.34
135. G2A C42G  0.34
136. C3U G29C  0.37
137. A6U G27C  0.38
138. G5U C42A  0.38
139. U20A G21C  0.39
140. G21U U38A  0.42
141. C23U U43C  0.43
142. A25C U28C  0.44
143. G21C A24G  0.44
144. C8A G44A  0.45
145. G30C C46A  0.45
146. G1A G2U  0.47
147. G22C U28C  0.5
148. G19A U20A  0.51
149. A25G C46A  0.55
150. G5U G36U  0.57
151. A12U G30U  0.58
152. G21A G30C  0.61
153. A26U C45G  0.64
154. U28G  0.64
155. U28A  0.71
156. G29A C46G  0.74
157. A16G G27A  0.78
158. A24U G27U  0.8
159. C18G G19C  0.83
160. G30U U38A  1
161. G21C C46A  1.13
162. A25C U28A  1.37
163. C23U C46A  1.4
164. C18A G30U  1.55
165. C18A G22U  1.74
166. C18U G29A  1.77
167. G21C U32C  1.82
